{"source": "the nanobody polyreactivity screen of Harvey et al. (2022)", "data": [{"assay": "yeast display, Sf9 membrane polyspecificity reagent, FACS + sequencing; frameworks hold sequencing errors", "how_it_was_run": "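Galactose-induced (36–48 hours) yeast carrying a synthetic nanobody display library were exposed to 10% biotinylated, detergent-solubilized Sf9 membrane reagent at 4 °C for 1 hour. FACS followed streptavidin microbead enrichment, using low and high (top ~1%) gates for expression (anti-HA) and reagent binding (streptavidin). Colony PCR, MiSeq 2 × 250 sequencing and CDR-length filtering followed. Labels for polyreactivity reflect the gate of origin.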", "values": [{"sequence": "QVQLVESGGGLVQAGGSLRLSCAASGRIFSYYAMGWYRQAPGKERELVAAISRTGGRTYYADSVKGRFTISRDNAKNTVYLQKNSLKPEDTAVYYCNVVGRRYWHWDQALDYWGQGTQVTVSS", "polyreactivity (PSR sort gate)": "high polyreactivity"}, {"sequence": "QVQLVESGGGLVQAGGSLRLSCAASGRIFSYYAMGWYRQAPGKERELVAAISSSGGSTYYADSVKGRFTISRDNAKNTVYLQMNSLKPEDTAVYYCAKLQYGFGRYGYWGQGTQVTVSS", "polyreactivity (PSR sort gate)": "high polyreactivity"}, {"sequence": "QVQLVESGGGLVQAGGSLRLSCAASGRIFSYYAMGWYRQAPGKERELVAGIRSGCSTNYADSVKGRFTISRDNAKNTVYLQMNSLKPEDTAVYYCAARYFKFYSKGSFRYLYESWGQGTQVTVSS", "polyreactivity (PSR sort gate)": "high polyreactivity"}, {"sequence": "QVQLVESGGGLVQAGGSLRLSCAASGRIFSYYAMGWYRQAPGKERELVASISRGSSTYYADSVKGRFTISRDNAKNTVYLQMNSLKPEDTAVYYCARQWLGYPYTTYTGSPVEGYGYWGQGTQVTVSS", "polyreactivity (PSR sort gate)": "high polyreactivity"}, {"sequence": "QVQLVESGGGLVQAGGSLRLSCAASGRIFSYYAMGWYRQAPGKERELVASITSGGSTYADSVKGRCTISRDSAKNTVYLQMNSLKREDTAVYYCAAGGKRRWPRKHYGYWGQGSQVTVSS", "polyreactivity (PSR sort gate)": "high polyreactivity"}, {"sequence": "QVQLVESGGGLVQAGGSLRLSCAASGRIFSYYAMGWYRQAPGKERELVATINWRADTYYADSVKGRFTISRDNAKKTVYLQMNSLKPEDSAVYYCAKRPRPTDKYDYWGQGTQVTVSS", "polyreactivity (PSR sort gate)": "high polyreactivity"}, {"sequence": "QVQLVESGGGLVQAGGSLRLSCAASGRIFSYYAMGWYRQAPGKERELVATISYSGGSTYYADSVKGRFTISRDNAKNTVYLQMNSLKPEDTAVYYCAATRYPYYSFVRFPSRRFNYWGQGTQVTVSS", "polyreactivity (PSR sort gate)": "high polyreactivity"}, {"sequence": "QVQLVESGGGLVQAGGSLRLSCAASGRIFSYYAMGWYRQAPGKERELVAVISRRGDNTYYADSVKGRFTISRDNAKNTVYLQMNSLKPEDTEVFYCAAYSWYAKDFDYWGQGTQVTVSS", "polyreactivity (PSR sort gate)": "high polyreactivity"}, {"sequence": "QVQLVESGGGLVQAGGSLRLSCAASGRIFSYYDMGWYRQAPGKERELVAAITWRGGSTYYADSVKGRFTISRDNAKNTVYLQMNSLKPEDTAVYYCAADWYPSIWEYDYWGQGSQVTVSS", "polyreactivity (PSR sort gate)": "low polyreactivity"}, {"sequence": "QVQLVESGGGLVQAGGSLRLSCAASGRIFSYYGMGWYRQAPGKERELVAAISTGGNTNYADSLKGRFTISRDNAKNTVYLQMNSLKPEDTAVYYCAAGFPYKFTYVCGYNHWGQGTQVTVSS", "polyreactivity (PSR sort gate)": "low polyreactivity"}, {"sequence": "QVQLVESGGGLVQAGGSLRLSCAASGRIFTAYYAMGWYRQAPGKERELVASISSSGTSTYADSVKGRFTISRDNAKNTVYLQMNSLKPEDTAVYYCATRKLRTRRYDYGYWGQGTQVNVSS", "polyreactivity (PSR sort gate)": "low polyreactivity"}, {"sequence": "QVQLVESGGGLVQAGGSLRLSCAASGRIFTDNVMGWYRQAPGKERELVAAITRRGGSTYYADSVKGRFTISRDNAKNTVYLQMNSLKPEDSAVYYCNARGRLYGHLYDYWGQGTQVTVSS", "polyreactivity (PSR sort gate)": "low polyreactivity"}, {"sequence": "QVQLVESGGGLVQAGGSLRLSCAASGRIFTFYAMGWYRQAPGKERELVATIRNGGSTNYADSVKGRFTISRDNAKNTVYLQMNSLKPEDTAVYYCNTYYYGRRRYGYWGQGTQVTVSS", "polyreactivity (PSR sort gate)": "high polyreactivity"}, {"sequence": "QVQLVESGGGLVQAGGSLRLSCAASGRIFTGNAMGWYRQAPGTERELVAAITKSGGSTYYADSVKGRFTISRDNAKNTVYLQMNSLKPEDTAVYYCAATRYLHYVYKYGYWGQGTQVTVSS", "polyreactivity (PSR sort gate)": "high polyreactivity"}, {"sequence": "QVQLVESGGGLVQAGGSLRLSCAASGRIFTGNSMGWYRQAPGKERELVAAITSSGGSTYYADSVKGRFTISRDNAKNTVYLQMNSLKPDDTAVYYCAALYSSWWSWYYYWGQGTQVTVSS", "polyreactivity (PSR sort gate)": "high polyreactivity"}, {"sequence": "QVQLVESGGGLVQAGGSLRLSCAASGRIFTGNVMGWYRQAPGKERELFAAISYGGGSTNYADSVKGRFTISRDNAKNTVYLQMNSLKPEDTAVYYCAAGIKRYLSYYTRYGYWGQGTQVTVSS", "polyreactivity (PSR sort gate)": "high polyreactivity"}, {"sequence": "QVQLVESGGGLVQAGGSLRLSCAASGRIFTGNVMGWYRQAPGKERELVAAITYRGGSTYYADSVKGRFTISRDNAKNTVYLQMHSLKPEDTAVYYCNTRWDPYGYDYWGQGTQVTVSS", "polyreactivity (PSR sort gate)": "low polyreactivity"}, {"sequence": "QVQLVESGGGLVQAGGSLRLSCAASGRIFTGYAMGWYRQAPGKERELVAAISRGGSTNYADSAKGRFTISRDNAKNTVYLQLNSLKPEDTAVYYCAAGVHWDRGDYWGQGTQVTVSS", "polyreactivity (PSR sort gate)": "low polyreactivity"}, {"sequence": "QVQLVESGGGLVQAGGSLRLSCAASGRIFTHNDMGWYRQAPGKERELVAAITSGGRTTYADSVKGRFTISRDNAKNTVYLQMNSLKPEDTAVYYCNADTCLGSLDFDKRDYWGQGTQVTVSS", "polyreactivity (PSR sort gate)": "low polyreactivity"}, {"sequence": "QVQLVESGGGLVQAGGSLRLSCAASGRIFTHYAMGWYRQAPGKERELVAAISRTGGTTNYADSVKGRFTISRDNAKNTVYLQMNSLKPEDTADYYCAAVGKGAKDYFKYYSWGQGTQVTVSS", "polyreactivity (PSR sort gate)": "high polyreactivity"}, {"sequence": "QVQLVESGGGLVQAGGSLRLSCAASGRIFTLYDMGWYIQAPGKERELVAAISNSAGSTYYADSVKGRFTISRDNAKNTVYLQMNSLKPEDTAVYYCAAELWSWWGSRDYWGQGTQVTVSS", "polyreactivity (PSR sort gate)": "high polyreactivity"}, {"sequence": "QVQLVESGGGLVQAGGSLRLSCAASGRIFTNNARGWYSQAPGKERELVDAINVSGGRTYYADSVKGRFTISRDNAKNTVYLQMNSLKPEDTAVYYCNKVKETYMDNWGQGTQVTVSS", "polyreactivity (PSR sort gate)": "high polyreactivity"}, {"sequence": "QVQLVESGGGLVQAGGSLRLSCAASGRIFTNYAMGWSRQAPGKERELVAAITGVGSTNYADSVKGRFTISRDNEKNTVYLQMNSLKPEDTAVYYCNAEYDYVSYVYTGFAFDYWGQGTQVTVSS", "polyreactivity (PSR sort gate)": "low polyreactivity"}, {"sequence": "QVQLVESGGGLVQAGGSLRLSCAASGRIFTNYAMGWYRQAPGKEREFVAAISWSDGSTYYADSVKGRFTISRDNAKNTVYLQMNSLKPEDTAVYYCATEGTYGTFYSYRHFYYWGQGTQVTVSS", "polyreactivity (PSR sort gate)": "high polyreactivity"}, {"sequence": "QVQLVESGGGLVQAGGSLRLSCAASGRIFTPNAMGWYRQAPGKERELVAAISRSGGSTYYADSVKGRFTISRDTAKNTVYLQMKSLKPEDTAVDYCNKLRTPSSGLDYWGQGTQVTVSS", "polyreactivity (PSR sort gate)": "high polyreactivity"}, {"sequence": "QVQLVESGGGLVQAGGSLRLSCAASGRIFTPYAMGWYRQAPGKERELVAVIRDGSTYYADSVKGRFTISRDNAKNTVYLQMNSLKPEDPAVSYCSYDIWVWWSGAYDYWGQGNQVTVSS", "polyreactivity (PSR sort gate)": "low polyreactivity"}, {"sequence": "QVQLVESGGGLVQAGGSLRLSCAASGRIFTPYARGWYRQAPGKERELVAAISGRGGSTYYADSVKGRFTISRDNAKNTVYLQMNSLKPEDTAVYYCAATYFYVYDYGLDYWGQGTQVTVSS", "polyreactivity (PSR sort gate)": "high polyreactivity"}, {"sequence": "QVQLVESGGGLVQAGGSLRLSCAASGRIFTPYVMGWYRQAPGKERELVADINLSGDSTSYADSVKGRFTISRDNAKNTVYLQMNSLKPEDTAVYYCNADSYIYVGNDQYDYWGQGTQVTVSS", "polyreactivity (PSR sort gate)": "low polyreactivity"}, {"sequence": "QVQLVESGGGLVQAGGSLRLSCAASGRIFTQYAMGWYRPAPGKERELVAAISSSGVRTYYADSVKGRFTISRDNAKNNVYLQMNSLKPEDTAVYYCAVRRGGAYYQFGYWGQGTQVTVSS", "polyreactivity (PSR sort gate)": "high polyreactivity"}, {"sequence": "QVQLVESGGGLVQAGGSLRLSCAASGRIFTRNAMGWYRQAPGKERELVAAISGTGGSTYYADSVKGRFTISRDNAKNTVYLQMNSLKPEDTAVYYCAASRARTRSAYNYWGQGTQVTVSS", "polyreactivity (PSR sort gate)": "high polyreactivity"}, {"sequence": "QVQLVESGGGLVQAGGSLRLSCAASGRIFTRNAMRWYRQAPGKEREFVAAISHSGGSTYADSVKGRFTISRDNAKNTVFLQMNSLKPEDTAVFYCAAEWSSLNFDYWGQGTQVTVSS", "polyreactivity (PSR sort gate)": "low polyreactivity"}, {"sequence": "QVQLVESGGGLVQAGGSLRLSCAASGRIFTRNTMGWYRQAPGKERELVAAISGRGGSTYYADSVKGRFTISRDNAKNTVYLQMNSLKPEDTAVYYCAADGVYRGGYDYWGQVTQVTVSS", "polyreactivity (PSR sort gate)": "high polyreactivity"}, {"sequence": "QVQLVESGGGLVQAGGSLRLSCAASGRIFTRYAMGWYRQAPGKERELVAAITYSGGSTYYADSVKGRFTISRDNAKNTVYLQMNSLKPEDTAVYYCAAPYIGFVRHRKMGYWGQGTQVTVSS", "polyreactivity (PSR sort gate)": "low polyreactivity"}, {"sequence": "QVQLVESGGGLVQAGGSLRLSCAASGRIFTSNVMGWYRQAPGKERELVAAISWTGGNTYYADSVKGRFTISRDKAKNSVYLQMNSLKPEDTAVYYCAVTYWSAVFIPNKYDYWGQGTQVTVSS", "polyreactivity (PSR sort gate)": "low polyreactivity"}, {"sequence": "QVQLVESGGGLVQAGGSLRLSCAASGRIFTSYAMGWYRQAPGKEREFVAAITRRGGSTYYADSVKGRFTISRDNAKNTVYLQMKSLKQEDTAVYYCAADIYSVPYPSWARYDYWGQGTQVTVSS", "polyreactivity (PSR sort gate)": "high polyreactivity"}, {"sequence": "QVQLVESGGGLVQAGGSLRLSCAASGRIFTSYAMGWYRQAPGKERELVAAITSGGRTYYADSVKGRFTISRDNAKNTVYLQKNSLKAEDTAVYYCNAPRYLRYNYCGQGTQVTVSS", "polyreactivity (PSR sort gate)": "high polyreactivity"}, {"sequence": "QVQLVESGGGLVQAGGSLRLSCAASGRIFTSYVMGWDRQAPGKERELVAAITRSGGSTYYADSVKGRFTISRDNAKNTVYLQMNSQKPEDTAVYYCAAGVRGGGGRYRYGYWGQGTQVTVSS", "polyreactivity (PSR sort gate)": "high polyreactivity"}, {"sequence": "QVQLVESGGGLVQAGGSLRLSCAASGRIFTTNAMGWYRQAPGIERELVAAITYSGGTTYYADSVKGRFTISRDNAKNTVYFQMNSLKPEDTAVYYCAADVKFSPPYDYWGQGTQVTVSS", "polyreactivity (PSR sort gate)": "low polyreactivity"}, {"sequence": "QVQLVESGGGLVQAGGSLRLSCAASGRIFTTNAMGWYRQAPGKDRELVAAITYSGGTTYYADSVKGRFTISRDNAKNTVYLEMNSLKPEDTAVYYCAADVKFSTPYDYWGQGTQVTVSS", "polyreactivity (PSR sort gate)": "low polyreactivity"}, {"sequence": "QVQLVESGGGLVQAGGSLRLSCAASGRIFTVFGMGWYRQAPGKERELVAAISWSGGGTYYADSVKGRFTISRDNAKNTVYLQMNSLKPEDTAVYYCNAVRQYTWSLVFFSSDYDYWGQGTQVTVSS", "polyreactivity (PSR sort gate)": "low polyreactivity"}, {"sequence": "QVQLVESGGGLVQAGGSLRLSCAASGRIFTWNAMGWYRQAPGKERELVASISRSGTSTYYADSVKGRFTISRDNAKNTVYLQMNSLKPEDTAVYYCNARTIYYYFRLSTPYNYWGQGTQVTVSS", "polyreactivity (PSR sort gate)": "high polyreactivity"}, {"sequence": "QVQLVESGGGLVQAGGSLRLSCAASGRIFTWYAMGWYRTAPGKERELVATITGDGNTYYADSVKGRFTISRDNAKNTVYLQMKSLKPEDTAVYYCNRYGYFRYRWGKYEYWGQGTQVTVSS", "polyreactivity (PSR sort gate)": "high polyreactivity"}, {"sequence": "QVQLVESGGGLVQAGGSLRLSCAASGRIFTYNAMGWYRQAPGKERELVAAITRGGTTNYADSVKGRFTISRDNAKNTVYLQMNSLKPEDTAVYYCARAGAHPWWSRSTMYYWGQGTQVTVSS", "polyreactivity (PSR sort gate)": "low polyreactivity"}]}]}
